These results are taken from patent US20120135022A1.

Assay [1] concerns the target AAV1 capsid protein VP3 (AAV1). Put plainly: cell-based or functional assay.
Assay [2] has as its target AAV2 capsid protein VP3 (AAV2) (UniProt P03135). Briefly: cell-based or functional assay.
Chain of UniProt P03135 (P03135 203-735 limits assumed): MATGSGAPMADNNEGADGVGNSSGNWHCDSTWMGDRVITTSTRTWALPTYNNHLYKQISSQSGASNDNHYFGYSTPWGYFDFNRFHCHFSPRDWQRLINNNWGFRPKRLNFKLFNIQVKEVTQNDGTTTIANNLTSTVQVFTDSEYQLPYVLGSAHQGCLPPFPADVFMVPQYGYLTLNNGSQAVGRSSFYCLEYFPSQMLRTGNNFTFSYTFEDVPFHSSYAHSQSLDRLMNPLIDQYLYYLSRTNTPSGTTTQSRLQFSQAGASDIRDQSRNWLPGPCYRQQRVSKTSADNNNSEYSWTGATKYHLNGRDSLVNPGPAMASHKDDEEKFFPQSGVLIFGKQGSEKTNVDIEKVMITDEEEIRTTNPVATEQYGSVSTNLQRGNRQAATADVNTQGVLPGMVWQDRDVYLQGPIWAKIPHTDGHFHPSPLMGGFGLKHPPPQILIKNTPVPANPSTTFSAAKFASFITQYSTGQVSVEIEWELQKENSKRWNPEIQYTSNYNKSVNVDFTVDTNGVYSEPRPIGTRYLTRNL

Take “C-terminally truncated AAP (AAPtru) of AAV2 expressed from pVP2N-gfp (from UniProt D5SGZ8 2-177)”: the Particle titer (AAV1 capsid ELISA) after trans-complementation in assay [1] is 3.4e+10. In addition, in assay [2], the Particle titer (AAV2 capsid ELISA) after trans-complementation is 2.1e+11.
